Assay results reported in US20150160219.

Molecular target: T1, Indicator molecule of Example 3 (synthetic peptide with MMP-9 sequence, HNE sequence, DNP, fluorescent label and terminal biotin via PEG)
T1 chain: GPQGIFGQGAAPVA

B1: human neutrophil elastase (HNE) (Lee biotech, 342-40) (protein)
chain: IVGGRRARPHAWPFMVSLQLRGGHFCGATLIAPNFVMSAAHCVANVNVRAVRVVLGAHNLSRREPTRQVFAVQRIFENGYDPVNLLNDIVILQLNGSATINANVQVAQLPAQGRRLGNGVQCLAMGWGLLGRNRGIASVLQELNVTVVTSLCRRSNVCTLVRGRQAGVCFGDSGSPLVCNGLIHGIASFVRGGCASGLYPDAFAPVAQFVNWIDSIIQ
  detectable limit of the lateral flow cleavage assay: approximately 62.5-125 ng/ml
